This is an account of results in publication PMC3303126 (Nature structural & molecular biology, 2012).

Data set [1] concerns the target T1, ProtA-Sac3 250-563;Thp1;Sem1 (Saccharomyces cerevisiae;Saccharomyces …, UniProt P46674;Q08231;O94742 250-563;1-455;1-89, ||).
T1 sequence 1: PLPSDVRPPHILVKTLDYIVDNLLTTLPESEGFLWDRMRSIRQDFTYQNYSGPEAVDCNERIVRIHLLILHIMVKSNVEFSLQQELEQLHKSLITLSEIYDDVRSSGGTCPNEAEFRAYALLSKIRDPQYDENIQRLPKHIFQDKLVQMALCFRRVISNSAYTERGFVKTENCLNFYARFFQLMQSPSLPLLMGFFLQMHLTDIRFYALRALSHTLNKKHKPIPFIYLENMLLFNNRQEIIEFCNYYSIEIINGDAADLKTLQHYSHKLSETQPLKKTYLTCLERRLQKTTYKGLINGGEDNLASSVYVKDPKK
T1 sequence 2: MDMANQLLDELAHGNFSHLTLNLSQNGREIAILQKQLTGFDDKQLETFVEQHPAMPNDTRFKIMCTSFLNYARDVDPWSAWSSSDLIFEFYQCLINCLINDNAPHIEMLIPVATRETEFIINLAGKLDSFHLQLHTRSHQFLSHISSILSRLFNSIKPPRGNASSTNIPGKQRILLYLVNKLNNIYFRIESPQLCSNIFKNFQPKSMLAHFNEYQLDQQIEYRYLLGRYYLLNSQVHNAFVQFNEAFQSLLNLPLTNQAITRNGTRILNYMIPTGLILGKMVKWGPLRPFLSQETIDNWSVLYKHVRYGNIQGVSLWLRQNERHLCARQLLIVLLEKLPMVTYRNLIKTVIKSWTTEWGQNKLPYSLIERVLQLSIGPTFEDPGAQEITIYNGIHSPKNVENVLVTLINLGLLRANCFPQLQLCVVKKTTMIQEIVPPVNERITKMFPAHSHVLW
T1 sequence 3: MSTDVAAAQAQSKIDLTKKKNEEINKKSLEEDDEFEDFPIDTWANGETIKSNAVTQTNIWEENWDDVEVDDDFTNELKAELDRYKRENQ
In words: EMSA.

For data set [2], the target named is T2, Sac3-M (Sac3 250-563);Thp1;Sem1 (Saccharomyces cerevisiae;Saccharomyces …, UniProt P46674;Q08231;O94742 250-563;1-455;1-89, ||).
T2 sequence 1: T1 sequence 1
T2 sequence 2: T1 sequence 2
T2 sequence 3: T1 sequence 3
In words: EMSA. A general note: A gel shift assay detects complexes by their altered migration in electrophoresis.

Data set [3] addresses T2, Sac3-M (Sac3 250-563);Thp1;Sem1. The data set is described as follows: EMSA. This is another data set of the same source.
For data set [4], the target named is T3, His-Thp1 (full-length Thp1, coexpressed with Sem1) (S. cerevisiae, UniProt Q08231 1-455).
T3 sequence: T1 sequence 2
In words: crystal structure.

The target in data set [5] is T3, His-Thp1 (full-length Thp1, coexpressed …). The data set is described as follows: pull-down.

For AAAAAAAAAAAAAAAAAAAAAAAAA (ssRNA) [polyA25 RNA], the binding result in data set [1] and in data set [2] was “binds” each time.

UUUUUUUUUUUUUUUUUUUUUUUUU (ssRNA) [polyU25 RNA] returned a Kd in data set [3] of 175 nM.

B1: Sac3 residues 250-563 (Sac3-M), as crystallised (domain or fragment)
chain: T1 sequence 1
Turning to B1, in data set [4], the binding result was “binds”.

B2: Sem1 (full length, bacterially expressed) (natural protein)
chain: T1 sequence 3
In the case of B2, the binding result in data set [5] is reported as “binds”.

Usually Kd stands for the constant that tells how readily two partners part at equilibrium.
